Source: article PMC12093852 (Cell Communication and Signaling : CCS, 2025)

Columns and labels:
CXCR4-LgBiT = CXCR4-LgBiT (UniProt P61073)
ACKR3-LgBiT = ACKR3-LgBiT (UniProt P25106)
[1] = molecular target: CXCR4 N-terminally fused to Nanoluciferase (UniProt P61073); test: FRET or BRET; NanoBRET ligand binding competition; HEK293T cells stably expressing the receptor N-terminally fused to Nanoluciferase; increasing concentrations of ligands with 10 nM CXCL12-AZ568; 2 h on ice
[2] = molecular target: C-X-C chemokine receptor type 4 (CXCR4), endogenous on SupT1 cells (human (endogenous in SupT1)) (UniProt P61073)
[3] = molecular target: T1, C-X-C chemokine receptor type 4 (CXCR4), endogenous on SupT1 cells (human (endogenous in SupT1), UniProt P61073 1-352); test: flow cytometry on cells; competition with PE-conjugated anti-human CXCR4 antibody clone 1D9 (N-terminus) on 5 x 10^4 SupT1 cells; compounds serially diluted in cold PBS; 90 min at 4 °C; MFI normalized to full stain (100%) and unstained (0%); settings: one partner purified
[4] = molecular target: T1, C-X-C chemokine receptor type 4 …; test: flow cytometry on cells; competition with APC-conjugated anti-human CXCR4 antibody clone 12G5 (ECL-2) on 5 x 10^4 SupT1 cells; compounds serially diluted in cold PBS; 90 min at 4 °C; MFI normalized to full stain (100%) and unstained (0%); settings: one partner purified
[5] = molecular target: T2, CXCR4 N-terminally fused to Nanoluciferase (UniProt P61073 1-352); test: FRET or BRET; NanoBRET ligand binding competition; HEK293T cells stably expressing the receptor N-terminally fused to Nanoluciferase; increasing concentrations of ligands with 10 nM CXCL12-AZ568; 2 h on ice; settings: one partner purified
T2 construct: also called CXCR4 fused to a Nanoluciferase

C-X-C motif chemokine ligand 12 (CXCL12), unlabelled (from UniProt P48061 22-93)
β-arrestin-2 recruitment to CXCR4 (NanoBiT, HEK293T) (CXCR4-LgBiT): 30 nM | β-arrestin-2 recruitment to ACKR3 (NanoBiT, HEK293T) (ACKR3-LgBiT): 30 nM | IC50 [1]: 36.7 nM | inhibition of CXCR4-tropic HIV-1 infection of TZM-bl reporter cells [2]: 47.9 nM

B1: G protein-coupled receptor 15 ligand (GPR15LG) (ligand, UniProt Q6UWK7 25-81, looked up)
chain: KRRPAKAWSGRRTRLCCHRVPSPNSTNLKGHHVRLCKPCKLEPEPRLWVVPGALPQV
notes: also called C10orf99; AP-57
IC50 [3]: ~12100 nM | IC50 [4]: 1300 ± 100 nM | IC50 [5]: 829 ± 139 nM
